# According to paper PMC9482650, “Quantitative fragmentomics allow affinity mapping of interactomes” (Nature Communications, 2022):
# T1: APBA2_1, Q99767
# T1 sequence (Q99767 563-664, limits assumed, looked up): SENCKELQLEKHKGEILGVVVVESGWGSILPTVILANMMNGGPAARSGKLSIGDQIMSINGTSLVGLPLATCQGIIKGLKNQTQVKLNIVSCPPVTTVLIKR
# T2: APBA3_1, O96018
# T2 sequence (O96018 389-490, limits assumed, looked up): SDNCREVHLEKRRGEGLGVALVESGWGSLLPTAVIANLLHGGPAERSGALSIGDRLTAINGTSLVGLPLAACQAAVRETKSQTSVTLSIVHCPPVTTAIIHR
# T3: ARHGEF11, O15085
# T3 sequence (O15085 42-136, limits assumed, looked up): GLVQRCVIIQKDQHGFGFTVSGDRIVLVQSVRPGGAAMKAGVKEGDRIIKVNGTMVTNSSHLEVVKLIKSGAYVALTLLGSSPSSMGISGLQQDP
# T4: CARD11, Q9BXL7
# T4 sequence (Q9BXL7 662-765, limits assumed, looked up): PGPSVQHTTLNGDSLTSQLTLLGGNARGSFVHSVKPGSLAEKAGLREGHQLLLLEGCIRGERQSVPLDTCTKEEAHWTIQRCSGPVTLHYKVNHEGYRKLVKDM
# T5: DVL3, Q92997
# T5 sequence (Q92997 244-331, limits assumed, looked up): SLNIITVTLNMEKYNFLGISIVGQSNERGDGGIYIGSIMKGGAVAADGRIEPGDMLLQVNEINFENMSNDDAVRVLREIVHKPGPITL
# T6: FRMPD1, Q5SYB0
# T6 sequence (Q5SYB0 52-145, limits assumed, looked up): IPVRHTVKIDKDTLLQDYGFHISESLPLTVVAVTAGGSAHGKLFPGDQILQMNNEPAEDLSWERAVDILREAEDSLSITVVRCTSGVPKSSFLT
# T7: GRIP1_2, Q9Y3R0
# T7 sequence (Q9Y3R0 145-248, limits assumed, looked up): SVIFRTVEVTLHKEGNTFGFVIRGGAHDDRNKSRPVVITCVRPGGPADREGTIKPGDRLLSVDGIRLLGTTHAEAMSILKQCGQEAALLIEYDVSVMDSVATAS
# T8: MPP6, Q9NZW5
# T8 sequence (Q9NZW5 125-219, limits assumed, looked up): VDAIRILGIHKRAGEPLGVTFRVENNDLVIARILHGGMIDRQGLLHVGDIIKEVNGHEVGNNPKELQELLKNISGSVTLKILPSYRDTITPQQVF
# T9: NHERF3_1, Q5T2W1
# T9 sequence (Q5T2W1 4-100, limits assumed, looked up): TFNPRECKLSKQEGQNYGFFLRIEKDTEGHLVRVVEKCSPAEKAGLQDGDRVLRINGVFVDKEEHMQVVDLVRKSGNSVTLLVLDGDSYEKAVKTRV
# T10: PCLO, Q9Y6V0
# T10 sequence (Q9Y6V0 4491-4600, limits assumed, looked up): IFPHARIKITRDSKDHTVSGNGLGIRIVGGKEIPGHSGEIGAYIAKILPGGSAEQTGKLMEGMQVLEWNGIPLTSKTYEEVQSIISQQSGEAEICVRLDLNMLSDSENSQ
# T11: SNTA1, Q13424
# T11 sequence (Q13424 82-180, limits assumed, looked up): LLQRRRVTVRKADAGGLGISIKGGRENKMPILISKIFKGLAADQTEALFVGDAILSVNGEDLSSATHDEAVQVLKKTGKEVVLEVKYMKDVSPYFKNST
# T12: TIAM2, Q8IVF5
# T12 sequence (Q8IVF5 885-986, limits assumed, looked up): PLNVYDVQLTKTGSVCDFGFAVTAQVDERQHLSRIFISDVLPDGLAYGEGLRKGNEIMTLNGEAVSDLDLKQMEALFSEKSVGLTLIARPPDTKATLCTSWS
# T13: TJP3_3, O95049
# T13 sequence (O95049 375-456, limits assumed, looked up): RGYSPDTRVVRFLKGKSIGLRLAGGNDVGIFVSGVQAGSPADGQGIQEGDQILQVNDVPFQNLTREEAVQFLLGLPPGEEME
# Target: T1, APBA2_1, Q99767
# Assay: holdup assay
# Parameters: key: below the threshold = too weak to quantify, mostly under pKd 3.1 to 4
# Conditions: plain residues with an end cap or a label only (N-terminal biotin on a linker: ado-ado)
row,Binder,pKd
1,"PELESKESVL [SLC1A4, P43007]",below the threshold
2,"RQSILFSTEV [BCR, P11274]",below the threshold

# Target: T2, APBA3_1, O96018
# Assay: holdup assay
# Parameters: key: below the threshold = too weak to quantify, mostly under pKd 3.1 to 4
# Conditions: plain residues with an end cap or a label only (N-terminal biotin on a linker: ado-ado)
row,Binder,pKd
1,"PELESKESVL [SLC1A4, P43007]",below the threshold
2,"RQSILFSTEV [BCR, P11274]",below the threshold

# Target: T3, ARHGEF11, O15085
# Assay: holdup assay
# Parameters: key: below the threshold = too weak to quantify, mostly under pKd 3.1 to 4
# Conditions: plain residues with an end cap or a label only (N-terminal biotin on a linker: ado-ado)
row,Binder,pKd
1,"PELESKESVL [SLC1A4, P43007]",3.94
2,"RQSILFSTEV [BCR, P11274]",5.19

# Target: ARHGEF12, Q9NZN5-2
# Sequence (Q9NZN5 other isoform, or with tags, fused parts or gaps): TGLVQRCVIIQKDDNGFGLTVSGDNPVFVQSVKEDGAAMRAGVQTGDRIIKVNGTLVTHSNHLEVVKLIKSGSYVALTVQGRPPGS
# Assay: holdup assay
# Parameters: key: below the threshold = too weak to quantify, mostly under pKd 3.1 to 4
# Conditions: plain residues with an end cap or a label only (N-terminal biotin on a linker: ado-ado)
row,Binder,pKd
1,"PELESKESVL [SLC1A4, P43007]",4.53
2,"RQSILFSTEV [BCR, P11274]",5.09

# Target: T4, CARD11, Q9BXL7
# Assay: holdup assay
# Parameters: key: below the threshold = too weak to quantify, mostly under pKd 3.1 to 4
# Conditions: plain residues with an end cap or a label only (N-terminal biotin on a linker: ado-ado)
row,Binder,pKd
1,"PELESKESVL [SLC1A4, P43007]",below the threshold
2,"RQSILFSTEV [BCR, P11274]",below the threshold

# Target: CASK, O14936
# Sequence (O14936 487-570): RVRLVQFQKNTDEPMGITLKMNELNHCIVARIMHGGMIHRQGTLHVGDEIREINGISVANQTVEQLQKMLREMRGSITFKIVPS
# Assay: holdup assay
# Parameters: key: below the threshold = too weak to quantify, mostly under pKd 3.1 to 4
# Conditions: plain residues with an end cap or a label only (N-terminal biotin on a linker: ado-ado)
row,Binder,pKd
1,"PELESKESVL [SLC1A4, P43007]",below the threshold
2,"RQSILFSTEV [BCR, P11274]",below the threshold

# Target: DLG5_1, Q8TDM6
# Sequence (Q8TDM6 617-713): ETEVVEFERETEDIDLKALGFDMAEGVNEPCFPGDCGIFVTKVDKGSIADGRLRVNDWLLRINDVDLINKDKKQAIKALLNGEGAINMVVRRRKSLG
# Assay: holdup assay
# Parameters: key: below the threshold = too weak to quantify, mostly under pKd 3.1 to 4
# Conditions: plain residues with an end cap or a label only (N-terminal biotin on a linker: ado-ado)
row,Binder,pKd
1,"PELESKESVL [SLC1A4, P43007]",below the threshold
2,"RQSILFSTEV [BCR, P11274]",below the threshold

# Target: T5, DVL3, Q92997
# Assay: holdup assay
# Parameters: key: below the threshold = too weak to quantify, mostly under pKd 3.1 to 4
# Conditions: plain residues with an end cap or a label only (N-terminal biotin on a linker: ado-ado)
row,Binder,pKd
1,"PELESKESVL [SLC1A4, P43007]",below the threshold
2,"RQSILFSTEV [BCR, P11274]",below the threshold

# Target: T6, FRMPD1, Q5SYB0
# Assay: holdup assay
# Parameters: key: below the threshold = too weak to quantify, mostly under pKd 3.1 to 4
# Conditions: plain residues with an end cap or a label only (N-terminal biotin on a linker: ado-ado)
row,Binder,pKd
1,"PELESKESVL [SLC1A4, P43007]",below the threshold
2,"RQSILFSTEV [BCR, P11274]",below the threshold

# Target: T7, GRIP1_2, Q9Y3R0
# Assay: holdup assay
# Parameters: key: below the threshold = too weak to quantify, mostly under pKd 3.1 to 4
# Conditions: plain residues with an end cap or a label only (N-terminal biotin on a linker: ado-ado)
row,Binder,pKd
1,"PELESKESVL [SLC1A4, P43007]",below the threshold
2,"RQSILFSTEV [BCR, P11274]",below the threshold

# Target: GRIP2_3, Q9C0E4
# Sequence (Q9C0E4 238-339): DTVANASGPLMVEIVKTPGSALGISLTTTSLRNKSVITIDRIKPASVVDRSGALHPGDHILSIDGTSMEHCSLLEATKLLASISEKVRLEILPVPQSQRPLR
# Assay: holdup assay
# Parameters: key: below the threshold = too weak to quantify, mostly under pKd 3.1 to 4
# Conditions: plain residues with an end cap or a label only (N-terminal biotin on a linker: ado-ado)
row,Binder,pKd
1,"PELESKESVL [SLC1A4, P43007]",below the threshold
2,"RQSILFSTEV [BCR, P11274]",3.69

# Target: GRIP2_6, Q9C0E4
# Sequence (Q9C0E4 648-740): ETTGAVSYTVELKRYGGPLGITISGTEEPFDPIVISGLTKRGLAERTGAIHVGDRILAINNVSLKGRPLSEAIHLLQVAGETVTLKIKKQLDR
# Assay: holdup assay
# Parameters: key: below the threshold = too weak to quantify, mostly under pKd 3.1 to 4
# Conditions: plain residues with an end cap or a label only (N-terminal biotin on a linker: ado-ado)
row,Binder,pKd
1,"PELESKESVL [SLC1A4, P43007]",below the threshold
2,"RQSILFSTEV [BCR, P11274]",4.47

# Target: HTRA2, O43464
# Sequence (O43464 355-458): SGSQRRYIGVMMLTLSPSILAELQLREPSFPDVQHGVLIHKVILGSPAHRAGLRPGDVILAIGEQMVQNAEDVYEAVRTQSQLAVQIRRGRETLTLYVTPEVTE
# Assay: holdup assay
# Parameters: key: below the threshold = too weak to quantify, mostly under pKd 3.1 to 4
# Conditions: plain residues with an end cap or a label only (N-terminal biotin on a linker: ado-ado)
row,Binder,pKd
1,"PELESKESVL [SLC1A4, P43007]",below the threshold
2,"RQSILFSTEV [BCR, P11274]",below the threshold

# Target: IL16_1, Q14005
# Sequence (Q14005 210-306): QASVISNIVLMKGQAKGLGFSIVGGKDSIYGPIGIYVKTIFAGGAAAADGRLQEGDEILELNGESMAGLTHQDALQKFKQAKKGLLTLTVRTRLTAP
# Assay: holdup assay
# Parameters: key: below the threshold = too weak to quantify, mostly under pKd 3.1 to 4
# Conditions: plain residues with an end cap or a label only (N-terminal biotin on a linker: ado-ado)
row,Binder,pKd
1,"PELESKESVL [SLC1A4, P43007]",3.9
2,"RQSILFSTEV [BCR, P11274]",3.85

# Target: Inadl_6, Q8NI35
# Sequence (Q8NI35 1058-1167): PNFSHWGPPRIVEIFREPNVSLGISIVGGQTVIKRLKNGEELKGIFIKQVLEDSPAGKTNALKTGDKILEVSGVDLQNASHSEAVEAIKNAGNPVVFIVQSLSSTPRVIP
# Assay: holdup assay
# Parameters: key: below the threshold = too weak to quantify, mostly under pKd 3.1 to 4
# Conditions: plain residues with an end cap or a label only (N-terminal biotin on a linker: ado-ado)
row,Binder,pKd
1,"PELESKESVL [SLC1A4, P43007]",3.57
2,"RQSILFSTEV [BCR, P11274]",3.93

# Target: MAGI2_6, Q86UL8
# Sequence (Q86UL8 1141-1229): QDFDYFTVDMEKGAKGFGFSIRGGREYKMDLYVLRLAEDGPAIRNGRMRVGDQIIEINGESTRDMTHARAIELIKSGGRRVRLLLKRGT
# Assay: holdup assay
# Parameters: key: below the threshold = too weak to quantify, mostly under pKd 3.1 to 4
# Conditions: plain residues with an end cap or a label only (N-terminal biotin on a linker: ado-ado)
row,Binder,pKd
1,"PELESKESVL [SLC1A4, P43007]",3.93
2,"RQSILFSTEV [BCR, P11274]",4.67

# Target: T8, MPP6, Q9NZW5
# Assay: holdup assay
# Parameters: key: below the threshold = too weak to quantify, mostly under pKd 3.1 to 4
# Conditions: plain residues with an end cap or a label only (N-terminal biotin on a linker: ado-ado)
row,Binder,pKd
1,"PELESKESVL [SLC1A4, P43007]",below the threshold
2,"RQSILFSTEV [BCR, P11274]",below the threshold

# Target: T9, NHERF3_1, Q5T2W1
# Assay: holdup assay
# Parameters: key: below the threshold = too weak to quantify, mostly under pKd 3.1 to 4
# Conditions: plain residues with an end cap or a label only (N-terminal biotin on a linker: ado-ado)
row,Binder,pKd
1,"PELESKESVL [SLC1A4, P43007]",4.51
2,"RQSILFSTEV [BCR, P11274]",5.78

# Target: NHERF4_2, Q86UT5
# Sequence (Q86UT5 220-308): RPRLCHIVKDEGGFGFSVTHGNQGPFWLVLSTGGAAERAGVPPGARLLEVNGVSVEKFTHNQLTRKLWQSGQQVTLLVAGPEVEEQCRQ
# Assay: holdup assay
# Parameters: key: below the threshold = too weak to quantify, mostly under pKd 3.1 to 4
# Conditions: plain residues with an end cap or a label only (N-terminal biotin on a linker: ado-ado)
row,Binder,pKd
1,"PELESKESVL [SLC1A4, P43007]",below the threshold
2,"RQSILFSTEV [BCR, P11274]",below the threshold

# Target: NOS1, P29475
# Sequence (P29475 9-101): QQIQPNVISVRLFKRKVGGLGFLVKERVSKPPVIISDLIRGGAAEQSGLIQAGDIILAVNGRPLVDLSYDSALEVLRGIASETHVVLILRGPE
# Assay: holdup assay
# Parameters: key: below the threshold = too weak to quantify, mostly under pKd 3.1 to 4
# Conditions: plain residues with an end cap or a label only (N-terminal biotin on a linker: ado-ado)
row,Binder,pKd
1,"PELESKESVL [SLC1A4, P43007]",3.65
2,"RQSILFSTEV [BCR, P11274]",below the threshold

# Target: T10, PCLO, Q9Y6V0
# Assay: holdup assay
# Parameters: key: below the threshold = too weak to quantify, mostly under pKd 3.1 to 4
# Conditions: plain residues with an end cap or a label only (N-terminal biotin on a linker: ado-ado)
row,Binder,pKd
1,"PELESKESVL [SLC1A4, P43007]",below the threshold
2,"RQSILFSTEV [BCR, P11274]",below the threshold

# Target: PICK1, Q9NRD5
# Sequence (Q9NRD5 17-115): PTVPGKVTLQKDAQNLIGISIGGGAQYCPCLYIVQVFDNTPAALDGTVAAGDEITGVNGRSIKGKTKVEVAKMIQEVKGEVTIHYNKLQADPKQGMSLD
# Assay: holdup assay
# Parameters: key: below the threshold = too weak to quantify, mostly under pKd 3.1 to 4
# Conditions: plain residues with an end cap or a label only (N-terminal biotin on a linker: ado-ado)
row,Binder,pKd
1,"PELESKESVL [SLC1A4, P43007]",below the threshold
2,"RQSILFSTEV [BCR, P11274]",below the threshold

# Target: T11, SNTA1, Q13424
# Assay: holdup assay
# Parameters: key: below the threshold = too weak to quantify, mostly under pKd 3.1 to 4
# Conditions: plain residues with an end cap or a label only (N-terminal biotin on a linker: ado-ado)
row,Binder,pKd
1,"PELESKESVL [SLC1A4, P43007]",4.7
2,"RQSILFSTEV [BCR, P11274]",4.47

# Target: T12, TIAM2, Q8IVF5
# Assay: holdup assay
# Parameters: key: below the threshold = too weak to quantify, mostly under pKd 3.1 to 4
# Conditions: plain residues with an end cap or a label only (N-terminal biotin on a linker: ado-ado)
row,Binder,pKd
1,"PELESKESVL [SLC1A4, P43007]",below the threshold
2,"RQSILFSTEV [BCR, P11274]",below the threshold

# Target: T13, TJP3_3, O95049
# Assay: holdup assay
# Parameters: key: below the threshold = too weak to quantify, mostly under pKd 3.1 to 4
# Conditions: plain residues with an end cap or a label only (N-terminal biotin on a linker: ado-ado)
row,Binder,pKd
1,"PELESKESVL [SLC1A4, P43007]",below the threshold
2,"RQSILFSTEV [BCR, P11274]",below the threshold
